Measurements reported in publication PMC2935290.

Target: HLA-DPB1*0101 (human (endogenous in VAVY))
Experiment: radioligand binding

Row | other | Binder
1 | 0.2 | EKKYFAADQFEPLAA [… T8D]
2 | 1.8 | EKKYFAATCFEPLAA [… Q9C]
3 | 1 | EKKYFAATPFEPLAA [… Q9P]
4 | 1.8 | EKKYFAATRFEPLAA [… Q9R]
5 | 1 | EKKQFAATQFEPLAA [… Y4Q]
6 | 1 | EKKYFAATHFEPLAA [… Q9H]
7 | 2 | EKKDFAATQFEPLAA [… Y4D]
8 | 3.4 | EKKYFAANQFEPLAA [… T8N]
9 | 0.066 | EKKAFAATQFEPLAA [… Y4A]

Further lines, the binder ahead of its results:

Row | Binder | other
10 | EKKYFTATQFEPLAA [… A6T] | 2.1
11 | EKKYFYATQFEPLAA [… A6Y] | 6
12 | EKKYFPATQFEPLAA [… A6P] | 0.18
13 | EKKYFFATQFEPLAA [… A6F] | 2.1

Target: HLA-DPB1*0501 (human (endogenous in HO301))
Experiment: radioligand binding

Row | other | Binder
14 | 0.13 | EKKYFAAWQFEPLAA [… T8W]
15 | 13 | EKKYFAATFFEPLAA [… Q9F]
16 | 1 | EKKYFAATAFEPLAA [… Q9A]
17 | 3.4 | EKKYFAATVFEPLAA [… Q9V]
18 | 0.2 | EKKYFAAYQFEPLAA [… T8Y]
19 | 0.13 | EKKYFAATQFWPLAA [… E11W]
20 | 0.95 | EKKYFAATKFEPLAA [… Q9K]
21 | 2 | EKKYFAATQFVPLAA [… E11V]

The remaining lines, values behind:

Row | Binder | other
22 | EKKYFYATQFEPLAA [… A6Y] | 2.1
23 | EKKYFAATQFRPLAA [… E11R] | 1
24 | EKKYFKATQFEPLAA [… A6K] | 1.8
25 | EKKYFDATQFEPLAA [… A6D] | 0.13
26 | EKKYFAATQFNPLAA [… E11N] | 0.36
27 | EKKYFAATQFQPLAA [… E11Q] | 1
28 | EKKYFAATQFIPLAA [… E11I] | 2.1

Target: HLA-DPB1*0201 (human (endogenous in JY))
Experiment: radioligand binding

Row | other | Binder
29 | 1.8 | EKKQFAATQFEPLAA [… Y4Q]
30 | 2 | EKKYFAATSFEPLAA [… Q9S]
31 | 0.2 | EKKAFAATQFEPLAA [… Y4A]

More lines, now with the values behind:

Row | Binder | other
32 | EKKYFTATQFEPLAA [… A6T] | 1
33 | EKKYFEATQFEPLAA [… A6E] | 0.41
34 | EKKYFAATQFLPLAA [… E11L] | 2
35 | EKKYFDATQFEPLAA [… A6D] | 0.36
36 | EKKYFIATQFEPLAA [… A6I] | 0.89
37 | EKKYFCATQFEPLAA [… A6C] | 0.38
38 | EKKYFAATQFIPLAA [… E11I] | 1.8
